# Tests used:
# [1] = biological target: rSK2 small conductance, calcium-activated potassium channel (rat), P70604
# [2] = biological target: T1, hIK1 intermediate conductance, calcium-activated potassium channel (human), O15554; assay: block of macroscopic hIK1 current, patch clamp on macropatches from Xenopus oocytes
# T1 chain: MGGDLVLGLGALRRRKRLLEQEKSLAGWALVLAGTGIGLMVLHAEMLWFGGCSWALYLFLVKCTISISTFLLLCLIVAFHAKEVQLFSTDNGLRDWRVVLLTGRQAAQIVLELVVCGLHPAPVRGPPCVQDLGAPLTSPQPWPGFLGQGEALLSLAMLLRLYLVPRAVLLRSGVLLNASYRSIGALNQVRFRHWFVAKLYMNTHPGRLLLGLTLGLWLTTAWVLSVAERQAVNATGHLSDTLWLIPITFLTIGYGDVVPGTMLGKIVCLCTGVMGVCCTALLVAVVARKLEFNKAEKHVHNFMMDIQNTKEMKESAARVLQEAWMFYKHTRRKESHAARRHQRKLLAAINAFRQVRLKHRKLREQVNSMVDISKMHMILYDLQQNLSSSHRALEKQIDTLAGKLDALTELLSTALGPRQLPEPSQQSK
# Sequence of rSK2 small conductance, calcium-activated potassium channel (rat), P70604 (P70604 whole entry): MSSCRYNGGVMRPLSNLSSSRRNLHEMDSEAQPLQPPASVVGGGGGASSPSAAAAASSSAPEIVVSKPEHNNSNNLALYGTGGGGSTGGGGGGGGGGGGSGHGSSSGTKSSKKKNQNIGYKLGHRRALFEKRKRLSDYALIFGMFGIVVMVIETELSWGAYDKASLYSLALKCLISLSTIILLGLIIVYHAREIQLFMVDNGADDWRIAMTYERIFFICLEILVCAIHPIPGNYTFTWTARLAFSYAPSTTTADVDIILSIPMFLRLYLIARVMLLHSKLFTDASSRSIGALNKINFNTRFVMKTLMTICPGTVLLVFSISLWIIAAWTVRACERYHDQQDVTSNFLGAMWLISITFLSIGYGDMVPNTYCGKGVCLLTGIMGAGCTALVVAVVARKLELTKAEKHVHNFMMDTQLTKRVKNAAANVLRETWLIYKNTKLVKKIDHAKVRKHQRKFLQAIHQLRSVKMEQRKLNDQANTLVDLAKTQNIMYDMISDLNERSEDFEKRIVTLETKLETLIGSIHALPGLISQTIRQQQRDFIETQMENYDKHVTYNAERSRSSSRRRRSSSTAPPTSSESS
binder,measurement,setting,value
"CNCKAPETALCARRCQQH (modifications not checked) [apamin, P01500 28-45]",Kd,[1],0.063 nM
"QFTNVSCTTSKECWSVCQRLHNTSRGKCMNKKCRCYS (modifications not checked) [charybdotoxin, P13487 23-59]",Ki,[2],2.5 nM
